Drawing on article PMC8204342, “Dual arginine recognition of LRRK2 phosphorylated Rab GTPases” (Biophysical Journal, 2021), this text covers ratio to parent for six variants.

B1: RILPL2-GFP WT, full length [human] / HA-Rab8a in MLi-2 treated cells (LRRK2 inhibited) [Homo sapiens (Human).] (parent)
chain 1: MEEPPVREEEEEEGEEDEERDEVGPEGALGKSPFQLTAEDVYDISYLLGRELMALGSDPRVTQLQFKVVRVLEMLEALVNEGSLALEELKMERDHLRKEVEGLRRQSPPASGEVNLGPNKMVVDLTDPNRPRFTLQELRDVLQERNKLKSQLLVVQEELQCYKSGLIPPREGPGGRREKDAVVTSAKNAGRNKEEKTIIKKLFFFRSGKQT
chain 2: MAKTYDYLFKLLLIGDSGVGKTCVLFRFSEDAFNSTFISTIGIDFKIRTIELDGKRIKLQIWDTAGQERFRTITTAYYRGAMGIMLVYDITNEKSFDNIRNWIRNIEEHASADVEKMILGNKCDVNDKRQVSKERGEKLALDYGIKFMETSAKANINVENAFFTLARDIKAKMDKKLEGNSPQGSNQGVKITPDQQKRSSFFRC

In this experiment the parent is B1. Kind of experiment: co-immunoprecipitation (GFP binder Sepharose) with LI-COR immunoblot quantification. The conditions noted are these: with HA-Rab8a in MLi-2 treated cells (LRRK2 inhibited) [Homo sapiens (Human).]; HEK293 cells, Flag-LRRK2[Y1699C] + HA-Rab8a co-expressed; 500 nM MLi-2 for 90 min; parent: 0.11; read off a plot.
In the case of chain 1 MEEPPVREEEEEEGEEDEERDEVGPEGALGKSPFQLTAEDVYDISYLLGRELMALGSDPRVTQLQFKVVRVLEMLEALVNEGSLALEELKMERDHLRKEVEGLRRQSPPASGEVNLGPNKMVVNLTDPNRPRFTLQELRDVLQERNKLKSQLLVVQEELQCYKSGLIPPREGPGGRREKDAVVTSAKNAGRNKEEKTIIKKLFFFRSGKQT [chain 1 D124N], the ratio to parent came to 0.09. Take chain 1 MEEPPVREEEEEEGEEDEERDEVGPEGALGKSPFQLTAEDVYDISYLLGRELMALGSDPRVTQLQFKVVRVLEMLEALVNEGSLALEELKMERDHLRKEVEGLRRQSPPASGEVNLGPNKMVVALTDPNRPRFTLQELRDVLQERNKLKSQLLVVQEELQCYKSGLIPPREGPGGRREKDAVVTSAKNAGRNKEEKTIIKKLFFFRSGKQT [chain 1 D124A]: the ratio to parent was found to be 0.06.

For chain 1 MEEPPVREEEEEEGEEDEERDEVGPEGALGKSPFQLTAEDVYDISYLLGRELMALGSDPRVTQLQFKVVRVLEMLEALVNEGSLALEELKMERDHLRKEVEGLRRQSPPASGEVNLGPNKMVVDLADPNRPRFTLQELRDVLQERNKLKSQLLVVQEELQCYKSGLIPPREGPGGRREKDAVVTSAKNAGRNKEEKTIIKKLFFFRSGKQT [chain 1 T126A], the ratio to parent worked out at 0.12. Turning to chain 1 MEEPPVREEEEEEGEEDEERDEVGPEGALGKSPFQLTAEDVYDISYLLGRELMALGSDPRVTQLQFKVVRVLEMLEALVNEGSLALEELKMERDHLRKEVEGLRRQSPPASGEVNLGPNKMVVDLTAPNRPRFTLQELRDVLQERNKLKSQLLVVQEELQCYKSGLIPPREGPGGRREKDAVVTSAKNAGRNKEEKTIIKKLFFFRSGKQT [chain 1 D127A], the ratio to parent is 0.13. In the case of chain 1 MEEPPVREEEEEEGEEDEERDEVGPEGALGKSPFQLTAEDVYDISYLLGRELMALGSDPRVTQLQFKVVRVLEMLEALVNEGSLALEELKMERDHLRKEVEGLRRQSPPASGEVNLGPNKMVVDLTNPNRPRFTLQELRDVLQERNKLKSQLLVVQEELQCYKSGLIPPREGPGGRREKDAVVTSAKNAGRNKEEKTIIKKLFFFRSGKQT [chain 1 D127N], the ratio to parent came to 0.12. For chain 1 MEEPPVREEEEEEGEEDEERDEVGPEGALGKSPFQLTAEDVYDISYLLGRELMALGSDPRVTQLQFKVVRVLEMLEALVNEGSLALEELKMERDHLRKEVEGLRRQSPPASGEVNLGPNKMVVDLTDANRPRFTLQELRDVLQERNKLKSQLLVVQEELQCYKSGLIPPREGPGGRREKDAVVTSAKNAGRNKEEKTIIKKLFFFRSGKQT [chain 1 P128A], the ratio to parent came to 0.11.
